This is an account of results in patent publication US20040106569.

For data set [1], the target named is GST-GSK3 fusion protein (Cell Signaling Technology).

Positions count from the first letter of the chain named. Marks after values point to notes of the source that are not given here.

B1: full length PKNbeta KE588 mutant (protein)
chain: MEEGAPRQPGPSQWPPEDEKEVIRRAIQKELKIKEGVENLRRVATDRRHLGHVQQLLRSSNRRLEQLHGELRELHARILLPGPGPGPAEPVASGPRPWAEQLRARHLEALRRQLHVELKVKQGAENMTHTCASGTPKERKLLAAAQQMLRDSQLKVALLRMKISSLEASGSPEPGPELLAEELQHRLHVEAAVAEGAKNVVKLLSSRRTQDRKALAEAQAQLQESSQKLDLLRLALEQLLEQLPPAHPLRSRVTRELRAAVPGYPQPSGTPVKPTALTGTLQVRLLGCEQLLTAVPGRSPAAALASSPSEGWLRTKAKHQRGRGELASEVLAVLKVDNRVVGQTGWGQVAEQSWDQTFVIPLERARELEIGVHWRDWRQLCGVAFLRLEDFLDNACHQLSLSLVPQGLLFAQVTFCDPVIERRPRLQRQERIFSKRRGQDFLRRSQMNLGMAAWGRLVMNLLPPCSSPSTISPPKGCPRTPTTLREASDPATPSNFLPKKTPLGEEMTPPPKPPRLYLPQEPTSEETPRTKRPHMEPRTRRGPSPPASPTRKPPRLQDFRCLAVLGRGHFGKVLLVQFKGTGKYYAIEALKKQEVLSRDEIESLYCEKRILEAVGCTGHPFLLSLLVCFQTSSHARFVTEFVPGGDLMMQIHEDVFPEPQARFYVACVVLGLQFLHEKKIIYRDLKLDNLLLDAQGFLKIADFGLCKEGIGFGDRTSTFCGTPEFLAPEVLTQEAYTQAVDWWALGVLLYEMLVGECPFPGDTEEEVFDCIVNMDAPYPGFLSVQGLEFIQKLLQKCPEKRLGAGEQDAEEIKVQPFFRTTNWQALLARTIQPPFVPTLCGPADLRYFEGEFTGLPPALTPPAPHSLLTARQQAAFRDFDFVSERFLEP
B1: in data set [1], the “non-radioactive in vitro kinase assay (FIG. 11A)” value was “no (FIG. 11A) or background activity of unspecific kinases (FIG. 11B) were detected with the full length KE and full length TA mutatant proteinss”. Further, in the data set with myelin basic protein, the “radioactive in vitro kinase assay, 32P incorporation by autoradiography (FIG. 11B)” value (“radioactive in vitro kinase assay … (FIG. 11B)” for short) is “background activity of unspecific kinases (FIG. 11B)”.

B2: full length PKNbeta with the TA mutation at amino acid 718 (protein)
chain: B1 chain with E588K, T718A
Take B2: the “non-radioactive in vitro kinase assay (FIG. 11A)” value in data set [1] is “no (FIG. 11A) or background activity of unspecific kinases (FIG. 11B) were detected with the full length KE and full length TA mutatant proteinss”. Also, in the data set with myelin basic protein, the “radioactive in vitro kinase assay … (FIG. 11B)” value is on record as “background activity of unspecific kinases (FIG. 11B)”.

B3: full length wildtype PKNbeta molecule (889 amino acids) (protein)
chain: B1 chain with E588K
As to B3, the “non-radioactive in vitro kinase assay, phosphorylated substrate detected by Western blot” value in data set [1] is listed as “Only the full length wildtype protein kinase N beta or the kinase domain as defined in example 9 were suitable to phosphorylate the substrate”. Further, in the data set with myelin basic protein, the “Activity (phosphorylation of MPB)” value is listed as “++*” and the “radioactive in vitro kinase assay … (FIG. 11B)” value is given as “the full length wildtype protein kinase N beta as well as the kinase domain show activity”.

B4: PKNbeta deltaN comprising amino acids 288-889 (protein)
chain: CEQLLTAVPGRSPAAALASSPSEGWLRTKAKHQRGRGELASEVLAVLKVDNRVVGQTGWGQVAEQSWDQTFVIPLERARELEIGVHWRDWRQLCGVAFLRLEDFLDNACHQLSLSLVPQGLLFAQVTFCDPVIERRPRLQRQERIFSKRRGQDFLRRSQMNLGMAAWGRLVMNLLPPCSSPSTISPPKGCPRTPTTLREASDPATPSNFLPKKTPLGEEMTPPPKPPRLYLPQEPTSEETPRTKRPHMEPRTRRGPSPPASPTRKPPRLQDFRCLAVLGRGHFGKVLLVQFKGTGKYYAIKALKKQEVLSRDEIESLYCEKRILEAVGCTGHPFLLSLLVCFQTSSHARFVTEFVPGGDLMMQIHEDVFPEPQARFYVACVVLGLQFLHEKKIIYRDLKLDNLLLDAQGFLKIADFGLCKEGIGFGDRTSTFCGTPEFLAPEVLTQEAYTQAVDWWALGVLLYEMLVGECPFPGDTEEEVFDCIVNMDAPYPGFLSVQGLEFIQKLLQKCPEKRLGAGEQDAEEIKVQPFFRTTNWQALLARTIQPPFVPTLCGPADLRYFEGEFTGLPPALTPPAPHSLLTARQQAAFRDFDFVSERFLEP
As for B4, in the data set with myelin basic protein, the “Activity (phosphorylation of MPB)” value is “-*”.
